# Literature values as cited in publication PMC4976022.
# Molecular target: HPr (Escherichia coli) (UniProt P0AA04)
substance,measurement,value
EIN N-terminal domain (from UniProt P08839),Kd,7 µM
